Source: patent publication US20220204644A1 (MAB DISCOVERY, published 2022)

Key:
[1] = molecular target: T1, HER2 full-length extracellular domain (ECD), recombinant (human, UniProt P04626 23-652); assay: ELISA, coated HER2 ECD, antibody at 10 µg/ml
T1 construct: extracellular domain; also called full length ECD; HER2 full-length ECD
Procedure: (§1) Recombinant Her2 domains (full length ECD purchased from Biozol, ECD domains produced at Mab Discovery), were coated on a 384-well Nunc™ MaxiSorp™ plate at optimized concentrations ([…]) in PBS for one hour at room temperature. After washing three times with wash buffer (PBS, 0.1% Tween), plates were blocked with PBS, 2% BSA, 0.05% Tween for one hour at room temperature. Plates were washed again three time with wash buffer and antibodies at a concentration of 10 μg/ml in PBS, 0.5% BSA, 0.05% Tween were incubated for one hour at room temperature. After 3 washes in wash buffer, wells were incubated with 12.5 μl of a 1:5000 dilution of anti-human peroxidase-linked, species specific F(ab)2 Fragment from goat (AbD Serotec) in ELISA buffer for one hour at room temperature. Wells were washed six times with wash buffer and 15 μl/well TMB substrate solution (Invitrogen) were added. After 10 minutes at room temperature 15 μl Stop solution (1M HCl) were added per well and absorbance at 450 and 620 nm wavelength was measured using a Tecan M1000 microplate reader.

[2] = molecular target: T2, HER2 sub-domain I, recombinant (human, UniProt P04626 23-217, limits assumed); assay: ELISA, coated HER2 domain
T2 construct: domain: sub-domain I; also called HER2 domain I
Procedure: as §1

binding result [1]: binds
binding result [2]: no binding (tested: 10 µg/ml)
B1: B100 anti-HER2 monoclonal antibody (antibody, V domains shown)
VH: QSVEESGGRLVTPGTPLTLTCTVSGFSLSNYGVSWVRQAPGKGLEYIGIISGSGFTYYASWAKGRFTISKTSTTVDLKITSPTTKDTATYFCARGVVPGYNAGGLWGQGTLVTVSS
VL: DIVMTQTPASVSEPVGGTVTIKCQASQGISTALAWYQQKPGQRPKLLIYSASTLASGVSSRFKGSGSGTQFTLTISDLECADAATYYCQCTAAGSVSVGAFGGGTEVVVN
notes: It was detected in the ELISA with an anti-human F(ab)2 conjugate; also called B100 antibody
